Assay results as given in the Human Domainome abundance scans (Beltran et al. 2025).
± gives the uncertainty stated by the source.

B1: Zinc finger protein ZIC 2, residues 250 to 295; numbered along this chain, O95409 (parent)
chain: QCIKQELICKWIDPEQLSNPKKSCNKTFSTMHELVTHVSVEHVGGP
B2: Nuclear receptor subfamily 1 group D member 2, residues 103 to 171; numbered along this chain, Q14995 (parent)
chain: CKVCGDVASGFHYGVHACEGCKGFFRRSIQQNIQYKKCLKNENCSIMRMNRNRCQQCRFKKCLSVGMSR

Variants of: B1
Test: abundance fitness (aPCA) (normalised: wild type 0, dead -1); higher = more abundant; growth selection in yeast, the domain comes from the species named
Settings: Homo sapiens

Abundance fitness, by site and new letter:
V40: K -0.122 ± 0.1 | T -0.073 ± 0.1 | A -0.03 ± 0.089 | M 0.082 ± 0.099 | C -0.457 ± 0.11 | R -0.134 ± 0.086 | I -0.01 ± 0.11 | G 0.05 ± 0.084 | Y -0.275 ± 0.12 | E 0.062 ± 0.092 | F -0.549 ± 0.11 | H -0.136 ± 0.13 | W -0.581 ± 0.1 | L -0.363 ± 0.096 | N 0.075 ± 0.11 | S 0.001 ± 0.088
E33: M -0.751 ± 0.11 | H -0.434 ± 0.14 | S -0.452 ± 0.092 | R -0.69 ± 0.09 | C -0.777 ± 0.11 | Y -1.01 ± 0.13 | W -0.979 ± 0.1 | P -0.826 ± 0.12 | N -0.726 ± 0.12 | K -0.615 ± 0.12 | A -0.342 ± 0.088 | V -0.838 ± 0.092 | Q -0.046 ± 0.11 | D 0.086 ± 0.1 | G -0.166 ± 0.084 | L -0.735 ± 0.095 | F -1.03 ± 0.14 | I -0.932 ± 0.14
S39: Y -0.873 ± 0.14 | R 0.056 ± 0.087 | H -0.241 ± 0.13 | Q 0.296 ± 0.1 | I -0.681 ± 0.14 | P -0.666 ± 0.12 | F -0.663 ± 0.11 | E 0.334 ± 0.092 | V -0.357 ± 0.091 | T -0.065 ± 0.093 | M -0.274 ± 0.11 | W -0.292 ± 0.097 | L -0.356 ± 0.091 | G -0.019 ± 0.086 | D 0.414 ± 0.1 | C -0.016 ± 0.11 | A 0.129 ± 0.088 | N -0.007 ± 0.11
V38: A -0.161 ± 0.093 | C -0.066 ± 0.1 | S 0.202 ± 0.088 | E 0.518 ± 0.095 | Y 0.066 ± 0.12 | W 0.82 ± 0.09 | I -0.021 ± 0.1 | T 0.052 ± 0.1 | D -0.159 ± 0.1 | L -0.165 ± 0.091 | Q 0.43 ± 0.11 | M 0.278 ± 0.1 | F 0.08 ± 0.13 | G -0.095 ± 0.084 | K 0.623 ± 0.097 | H -0.121 ± 0.11 | P -0.417 ± 0.12 | N 0.035 ± 0.13 | R 0.607 ± 0.083
H32: A 0.14 ± 0.086 | P 0.171 ± 0.091 | V -0.196 ± 0.087 | I -0.211 ± 0.12 | F 0.012 ± 0.11 | E 0.082 ± 0.096 | K -0.011 ± 0.11 | D 0.092 ± 0.098 | S 0.011 ± 0.089 | Y -0.573 ± 0.12 | L -0.471 ± 0.089 | G -0.044 ± 0.086 | T 0.037 ± 0.091 | W 0.163 ± 0.094 | N 0.275 ± 0.11 | R 0.084 ± 0.086 | C -0.172 ± 0.1 | M -0.263 ± 0.095
H37: W -0.953 ± 0.15 | Q -0.93 ± 0.15 | K -0.806 ± 0.15 | F -1.1 ± 0.22 | R -0.789 ± 0.11 | G -0.565 ± 0.11 | I -1 ± 0.26 | M -0.728 ± 0.13 | A -0.683 ± 0.12 | T -0.903 ± 0.14 | P -0.787 ± 0.14 | L -0.741 ± 0.11 | Y -0.951 ± 0.14 | N -0.747 ± 0.19 | E -0.611 ± 0.15 | D -0.457 ± 0.13 | V -0.904 ± 0.11 | S -0.856 ± 0.15 | C -1.5 ± 0.23
T36: A -0.178 ± 0.091 | M -0.341 ± 0.1 | D -0.068 ± 0.1 | N -0.232 ± 0.12 | L -0.453 ± 0.089 | V -0.38 ± 0.088 | E -0.025 ± 0.097 | K 0.141 ± 0.095 | W -0.081 ± 0.097 | C -0.236 ± 0.099 | F -0.483 ± 0.11 | S 0.018 ± 0.086 | Y -0.25 ± 0.11 | Q 0.055 ± 0.1 | G -0.032 ± 0.086 | H -0.283 ± 0.12
G45: K -0.134 ± 0.12 | E -0.032 ± 0.1 | S -0.244 ± 0.089 | C -0.017 ± 0.1 | V -0.242 ± 0.09 | A 0.035 ± 0.091 | T -0.093 ± 0.11 | R -0.114 ± 0.087 | M -0.382 ± 0.12 | Y -0.648 ± 0.13 | D 0.034 ± 0.088 | P -0.195 ± 0.16 | F -0.202 ± 0.1 | I 0.133 ± 0.12 | L -0.149 ± 0.092 | H -0.443 ± 0.13 | Q -0.217 ± 0.13
G44: W -0.082 ± 0.098 | Q -0.267 ± 0.13 | L -0.641 ± 0.097 | I -0.363 ± 0.11 | E -0.2 ± 0.099 | N -0.019 ± 0.11 | Y -0.357 ± 0.13 | A -0.006 ± 0.087 | M -0.372 ± 0.1 | V -0.273 ± 0.088 | P -0.217 ± 0.1 | T -0.045 ± 0.091 | H -0.292 ± 0.11 | F -0.384 ± 0.1 | R 0.057 ± 0.086 | C -0.062 ± 0.096 | K -0.142 ± 0.12
V35: R 0.193 ± 0.084 | T 0.302 ± 0.095 | A -0.04 ± 0.088 | S 0.5 ± 0.086 | G 0.118 ± 0.083 | Y 0.296 ± 0.1 | Q 0.543 ± 0.099 | K 0.446 ± 0.097 | W 0.2 ± 0.089 | I 0.03 ± 0.099 | F 0.054 ± 0.11 | P -0.848 ± 0.11 | M 0.245 ± 0.097 | N 0.761 ± 0.1 | E 0.529 ± 0.091
T30: P -0.923 ± 0.13 | V -0.429 ± 0.099 | R -0.418 ± 0.094 | Y -0.96 ± 0.18 | Q -0.159 ± 0.11 | S -0.273 ± 0.096 | W -0.661 ± 0.12
H42: S -0.854 ± 0.095 | A -0.689 ± 0.096 | C -1.16 ± 0.14 | D -1.01 ± 0.12 | Y -0.971 ± 0.12 | T -0.89 ± 0.11 | E -1.07 ± 0.13 | Q -0.909 ± 0.13 | N -1.25 ± 0.16 | L -0.975 ± 0.098 | G -0.661 ± 0.091 | M -0.642 ± 0.12 | F -1.04 ± 0.13 | P -1.13 ± 0.14 | I -0.862 ± 0.12 | W -0.707 ± 0.12
V43: G 0.247 ± 0.084 | L -0.299 ± 0.09 | P 0.129 ± 0.095 | M -0.126 ± 0.1 | Q 0.116 ± 0.095 | F 0.063 ± 0.11 | S 0.313 ± 0.088 | R 0.226 ± 0.085 | A 0.052 ± 0.086 | Y 0.485 ± 0.1 | H 0.012 ± 0.11 | W -0.332 ± 0.1 | E 0.587 ± 0.088 | T 0.108 ± 0.096 | K 0.088 ± 0.11
E41: I -0.216 ± 0.12 | N -0.044 ± 0.11 | F -0.405 ± 0.13 | T 0.032 ± 0.094 | Q 0.084 ± 0.098 | M -0.338 ± 0.1 | K -0.269 ± 0.11 | A -0.07 ± 0.089 | W -0.387 ± 0.1 | P -1.04 ± 0.12 | Y -0.226 ± 0.12 | S 0.032 ± 0.087 | G -0.279 ± 0.087 | V -0.125 ± 0.086 | D -0.093 ± 0.11 | C 0.03 ± 0.1 | L -0.487 ± 0.089 | R -0.377 ± 0.088
M31: K 0.518 ± 0.097 | Q 0.438 ± 0.095 | D 0.334 ± 0.098 | S 0.321 ± 0.089 | L -0.377 ± 0.088 | I 0.318 ± 0.1 | H 0.436 ± 0.13 | T 0.042 ± 0.099 | V -0.363 ± 0.086 | G 0.079 ± 0.083 | A 0.12 ± 0.085 | W -0.602 ± 0.096 | C -0.569 ± 0.12 | P -0.079 ± 0.098 | N 0.622 ± 0.11 | E 0.373 ± 0.089
L34: Y 0.544 ± 0.11 | I -0.79 ± 0.15 | F -0.039 ± 0.1 | C -0.797 ± 0.12 | D -0.828 ± 0.13 | G -0.618 ± 0.086 | V -0.615 ± 0.09 | E -0.717 ± 0.1 | A -0.641 ± 0.091 | W -0.029 ± 0.096 | S -0.617 ± 0.094 | K -0.23 ± 0.1 | H -0.569 ± 0.14 | N -0.733 ± 0.15 | M 0.087 ± 0.095 | R -0.705 ± 0.089 | T -0.696 ± 0.1 | P -0.371 ± 0.11 | Q -0.48 ± 0.12
P46: F -0.736 ± 0.36 | K 0.593 ± 0.26 | I -0.976 ± 0.43 | C 0.1 ± 0.29 | D 0.004 ± 0.26 | R -0.231 ± 0.17 | A -0.578 ± 0.24 | H 0.193 ± 0.26 | T -0.673 ± 0.21 | W -0.709 ± 0.43 | L -0.556 ± 0.28

Variants of: B2
Test: as above
Settings: Homo sapiens

Abundance fitness of substitutions, site by site:
V3: I -0.293 ± 0.27 | A -0.74 ± 0.33 | R -1.25 ± 0.45 | D -0.763 ± 0.45 | N -0.78 ± 0.38 | S -0.161 ± 0.46 | G -0.738 ± 0.22 | E -0.754 ± 0.28
C1: F -0.451 ± 0.32 | G -0.939 ± 0.26 | E -0.613 ± 0.48
C4: T -0.599 ± 0.27 | E -0.687 ± 0.26 | W -0.83 ± 0.3 | S -0.819 ± 0.21 | G -0.795 ± 0.19 | V -0.941 ± 0.26 | A -0.949 ± 0.26 | L -0.902 ± 0.17
K2: Q -0.049 ± 0.14 | G -0.623 ± 0.12 | D -0.482 ± 0.22 | M -0.401 ± 0.2 | N -0.011 ± 0.14 | F -0.53 ± 0.24 | W -0.673 ± 0.21 | A 0.016 ± 0.092 | E -0.174 ± 0.14 | R -0.029 ± 0.071 | T -0.186 ± 0.1 | V -0.474 ± 0.1 | S -0.336 ± 0.047 | I -0.367 ± 0.16 | C -0.578 ± 0.23 | L -0.491 ± 0.12 | Y -0.7 ± 0.24
G5: V -0.815 ± 0.11 | P -0.598 ± 0.11 | S -0.689 ± 0.097 | D -0.645 ± 0.18 | L -0.787 ± 0.1 | W -0.684 ± 0.089 | C -0.769 ± 0.18 | E -0.605 ± 0.13 | F -0.918 ± 0.2 | Q -0.476 ± 0.1 | T -0.802 ± 0.13 | I -0.83 ± 0.25 | Y -1.11 ± 0.31 | H -0.623 ± 0.18 | R -0.824 ± 0.083 | M -0.226 ± 0.11 | A -0.621 ± 0.1 | K -0.5 ± 0.11
D6: K -0.862 ± 0.33 | F -0.694 ± 0.38 | A 0.04 ± 0.13 | G -0.535 ± 0.34 | E -0.06 ± 0.21
